Results published in the RNAGym collection of RNA variant scans (doi:10.1073/pnas.2313332121).

B1: TPR t1 (parent)
chain: GACCAAUCUGCCCUCAGAGCUCGAGAACAUCUUCGGAUGCAGAGGAGGCAGGCUUCGGUGGCGCGAUAGCGCCAACGUCCUCAACCUCCAAUGCAUCCCACCACAUGAUGAUGCCUGAAGAGCCUUGGUUUUUUG

Variants of: B1
Test: polymerase ribozyme fitness, log enrichment relative to wild type (log ratio); higher = more active; in vitro selection for triplet polymerase activity
Outline: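 Libraries of mutants in each subunit of a heterodimeric triplet polymerase ribozyme were generated by PCR and transcribed. In triplicate, each went through one in vitro selection round: annealing with biotinylated primer, partner subunit and triplets; frozen incubation at −7 °C; gel excision of extended constructs; streptavidin-bead capture; RT-PCR. Fitness, taken from Illumina sequencing of input and output libraries, is the logarithm of a genotype's enrichment over wild-type enrichment, averaged across replicates with inverse-variance weights. The logarithm is base 2, and genotypes needed ≥10 input reads and ≥1 read per output to be kept.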
For C11U C28G C85A C104U G113C, the “polymerase ribozyme fitness (log ratio)” value was -6.42. In the case of C11U C22U C40G, the “polymerase ribozyme fitness (log ratio)” value is reported as -4.75. With C11G U78G A91G A95C G135U the “polymerase ribozyme fitness (log ratio)” value was -1.3. With C11U C34A G48U U87A the “polymerase ribozyme fitness (log ratio)” value was -5.34. For C11U C56A C82U C86G, the “polymerase ribozyme fitness (log ratio)” value was -1.73. For C11U A66G U87G G113U, the “polymerase ribozyme fitness (log ratio)” value was -5.47. With C11G U32A A46U C85A U126G the “polymerase ribozyme fitness (log ratio)” value was -5.61. For C11G U32C A41G G45A A90C U96C C98U U106G A111U, the “polymerase ribozyme fitness (log ratio)” value was -6.91. In the case of C11U C40G C82U A100U, the “polymerase ribozyme fitness (log ratio)” value is reported as -4.42. In the case of C11U C53A G69U G93C C94U, the “polymerase ribozyme fitness (log ratio)” value is reported as -0.279. In the case of C11U A18C C72G G127A, the “polymerase ribozyme fitness (log ratio)” value is reported as -5.18. For C11U C73G, the “polymerase ribozyme fitness (log ratio)” value was 0.0999. For C11U C73U, the “polymerase ribozyme fitness (log ratio)” value was -0.94. For C11G U54C, the “polymerase ribozyme fitness (log ratio)” value was -0.0215. For C11U A18G A50U U96A C98U G110A A121G U134G, the “polymerase ribozyme fitness (log ratio)” value was -5.84. For C11U A26U U54G, the “polymerase ribozyme fitness (log ratio)” value was -2.81. With C11U A18C A27U A46U the “polymerase ribozyme fitness (log ratio)” value was -7.63. In the case of C11U A90G C97G U129C, the “polymerase ribozyme fitness (log ratio)” value is reported as -5.59. For C11U C89U C99U A121U U131A, the “polymerase ribozyme fitness (log ratio)” value was -1.82. With C11U A16G U54G C102U C104U G117A the “polymerase ribozyme fitness (log ratio)” value was -5.64. For C11U C114A, the “polymerase ribozyme fitness (log ratio)” value was -1.22. With C11U C15U C56U C72U the “polymerase ribozyme fitness (log ratio)” value was -1.82. With C11U C15A C64U A84U the “polymerase ribozyme fitness (log ratio)” value was -2.56. For C11U A43C C76U A83U A90G, the “polymerase ribozyme fitness (log ratio)” value was -3.5. With C11U A18G G45U G52U G61A A111G U130G U132A the “polymerase ribozyme fitness (log ratio)” value was -6.3. In the case of C11U A27U U32G A37U C62A U109A, the “polymerase ribozyme fitness (log ratio)” value is reported as -5.82. With C11U C31U the “polymerase ribozyme fitness (log ratio)” value was -4.93. In the case of C11U C82G C102A U112A G120C U125G, the “polymerase ribozyme fitness (log ratio)” value is reported as -5. For C11U C15A A26G C53G G61U G120C, the “polymerase ribozyme fitness (log ratio)” value was -4.04. In the case of C11U A29G G77U A84U C89A, the “polymerase ribozyme fitness (log ratio)” value is reported as -6.04. For C11G U96A, the “polymerase ribozyme fitness (log ratio)” value was -0.629. With C11U C13U C20G G107A G117U G120U the “polymerase ribozyme fitness (log ratio)” value was -3.09. For C11G U32A G48U C64A C73U U96A C123A, the “polymerase ribozyme fitness (log ratio)” value was -7.31. With C11U A24U C28G C62G A83G G113U U133C the “polymerase ribozyme fitness (log ratio)” value was -6.38. In the case of C11G U78C C82U G117A, the “polymerase ribozyme fitness (log ratio)” value is reported as -0.181. In the case of C11G U78C C102A A118U, the “polymerase ribozyme fitness (log ratio)” value is reported as -1.3. For C11U C22U U55C C56U A66U, the “polymerase ribozyme fitness (log ratio)” value was -6.04. With C11U C15A A29C C34A G71U C79U C104A G117U the “polymerase ribozyme fitness (log ratio)” value was -6.92. For C11U C82U, the “polymerase ribozyme fitness (log ratio)” value was -1.45. In the case of C11U C53U G69U A75U A84G, the “polymerase ribozyme fitness (log ratio)” value is reported as -1.1. In the case of C11U A74U G113A, the “polymerase ribozyme fitness (log ratio)” value is reported as -2.56. With C11U A83U C101G the “polymerase ribozyme fitness (log ratio)” value was -2.28. With C11G U54A G93C the “polymerase ribozyme fitness (log ratio)” value was -0.558. With C11U A37U C49A C123U the “polymerase ribozyme fitness (log ratio)” value was 0.929. With C11U A27U C62U C88G C97G C98U C99U C114G C124A G128A the “polymerase ribozyme fitness (log ratio)” value was -7.25. With C11U A18C C82A C104U the “polymerase ribozyme fitness (log ratio)” value was -2.34. For C11U G17A C64U A83C A84C A119G, the “polymerase ribozyme fitness (log ratio)” value was -0.999. With C11U C49G G61U A90C the “polymerase ribozyme fitness (log ratio)” value was -2.04. With C11G U96A U112A G122A G128C the “polymerase ribozyme fitness (log ratio)” value was -1.26. With C11G U106G the “polymerase ribozyme fitness (log ratio)” value was -0.452. With C11U C13G U30G U55A C70U A108U the “polymerase ribozyme fitness (log ratio)” value was -3.69. For C11U C53U C62U G110A U129A, the “polymerase ribozyme fitness (log ratio)” value was -4.11. In the case of C11U C15G U59C U112A, the “polymerase ribozyme fitness (log ratio)” value is reported as -4.15. In the case of C11U A29C C72G U112A G135U, the “polymerase ribozyme fitness (log ratio)” value is reported as -2.74. With C11U A41U G69C the “polymerase ribozyme fitness (log ratio)” value was -2.81. With C11U C13G A24G G47C C49A C88G C94U A108U C114U the “polymerase ribozyme fitness (log ratio)” value was -6.99. With C11U C20U C22A A91U G113A the “polymerase ribozyme fitness (log ratio)” value was -4.25. For C11U A27U C72U U78G A121U, the “polymerase ribozyme fitness (log ratio)” value was -0.173. With C11U C49G the “polymerase ribozyme fitness (log ratio)” value was -1.44. For C11U G17C C49A G58C, the “polymerase ribozyme fitness (log ratio)” value was -6.04. With C11U A121C the “polymerase ribozyme fitness (log ratio)” value was 1.76. With C11U C72U the “polymerase ribozyme fitness (log ratio)” value was -0.485. For C11U A24G G45U A91G, the “polymerase ribozyme fitness (log ratio)” value was -5.06. In the case of C11U C13A C22U U55G, the “polymerase ribozyme fitness (log ratio)” value is reported as -4.69. For C11U C28U G45U G61U A84U C101A, the “polymerase ribozyme fitness (log ratio)” value was -5.59. For C11U C22G A26C C64U, the “polymerase ribozyme fitness (log ratio)” value was -4.03. For C11U C40U, the “polymerase ribozyme fitness (log ratio)” value was -0.173. In the case of C11U C15A C49A C73G C85A G120A, the “polymerase ribozyme fitness (log ratio)” value is reported as -4.65. For C11U C115A, the “polymerase ribozyme fitness (log ratio)” value was -0.908. With C11U C53U the “polymerase ribozyme fitness (log ratio)” value was 0.00138. For C11U C53G, the “polymerase ribozyme fitness (log ratio)” value was -0.654. For C11U C53A, the “polymerase ribozyme fitness (log ratio)” value was -0.286. For C11U C104U, the “polymerase ribozyme fitness (log ratio)” value was -1.3. With C11U C62A the “polymerase ribozyme fitness (log ratio)” value was -1.39. In the case of C11U C123G, the “polymerase ribozyme fitness (log ratio)” value is reported as 1.73. For C11U C123A, the “polymerase ribozyme fitness (log ratio)” value was 0.93. For C11G U21G C53A U55C, the “polymerase ribozyme fitness (log ratio)” value was -0.805. For C11U A26U G47U, the “polymerase ribozyme fitness (log ratio)” value was -3.55. With C11U C49A G107U G113C the “polymerase ribozyme fitness (log ratio)” value was -6.14. For C11G U33C G63A C99U A111C, the “polymerase ribozyme fitness (log ratio)” value was -7.29. In the case of C11U A26U G52C G61U, the “polymerase ribozyme fitness (log ratio)” value is reported as -2.85. With C11U C40U A121C U129G the “polymerase ribozyme fitness (log ratio)” value was 0.406. In the case of C11U C40G C53U C73G C79A C86U, the “polymerase ribozyme fitness (log ratio)” value is reported as -4.32.
